Entries after “also recorded” stand apart in the source; their conditions may differ.

Experiment [1] deals with renalase-1 and renalase-2. As to the kind of experiment: renalase isoform specificity of the antibodies (ELISA / hybridoma screening). It is filed as binding, human. The following applies: renalase-1 vs renalase-2. On the procedure:
Peptides were used as immunogens. The peptides generated ranged from 9 to 21 amino acids and corresponded to regions of the renalase-1 and renalase-2 proteins. […] Each peptide was conjugated to the adjuvant KLH via the cysteine and used to immunize 6 rabbits. Antiserum collected from each animal was screened for anti-renalase antibody titer by ELISA assay using both the relevant peptide (BSA-conjugate) or full length renalase-1 or 2. The antisera were also tested for their ability to detect endogenous renalase in tissue lysates by western blot. Using these screening criteria the animals producing antibodies with the preferred characteristics were selected. In some examples and for some peptides, several animals produced antibodies with the required specificity. […] Polyclonal antibodies raised against all of the peptides were generated by purification of total IgG from terminal bleeds by protein G chromatography followed by further purification on peptide affinity chromatography. Further and using standard procedures, lymphocytes from the spleens of selected animals were fused to myeloma cells for hybridoma generation. The hybridoma supernatants were screened for binding to both the peptides against which they were raised and secondarily screened against whole renalase protein. Selected hybridomas were sub-cloned and expanded for antibody purification. The monoclonal antibodies were purified from conditioned hybridoma culture supernatant by protein A affinity chromatography.
(In general: ELISA stands for enzyme-linked immunosorbent assay.)

Experiment [2] has as its system BxPC3 xenografted tumors. As to the kind of experiment: BxPC3 pancreatic xenograft in athymic nude mice. It is filed as in vivo, mouse. On the procedure:
Immunohistochemistry was performed as described previously (Guo et al., 2012 Cancer Science. 103(8):1474-80). Briefly tumor tissues were formalin-fixed, paraffin-embedded and cut into 5-m sections on glass slides. The slides were de-paraffinized and hydrated, followed by antigen retrieval in a pressure cooker containing 10 mM sodium citrate, pH6 buffer. The sections were blocked in 3% hydrogen peroxide for 30 min and 2.5% normal horse serum in PBS/0.1% Tween20 for 1 h followed by incubation with primary antibody and isotype control IgG overnight at 4° C. The following antibodies were used in this study: m28-RNLS at 500 ng/ml; goat polyclonal anti-RNLS at 250 ng/ml (Abcam, AB31291); rabbit monoclonal anti Ki67 (Vector Lab, VP-RM04, 1:100); rabbit monoclonal anti p21 and phspho-Tyr^705-Stat3 (Cell Signaling Technologies, #2947, 1:100 and #9145, 1:400, respectively). ImmPRESS peroxidase-anti-rabbit IgG (Vector Laboratories, Burlingame, Calif., USA) was used to detect primary antibodies. The color was developed using a Vector DAB substrate kit and counterstained with hematoxylin (Vector Laboratories). Slides were observed and photographed using an Olympus BX41 microscope and camera (Olympus America Inc, Center Valley, Pa., USA).
Female athymic, 18-20 g nude mice (nu/nu) were obtained from Charles River (Willimantic, Conn.) and housed in microisolator cages, with autoclaved bedding in a specific pathogen-free facility, with a 12-h light/dark cycle.
Xenograft tumors were established by subcutaneous injection of BxPC3 cells (2×10^6 in 100 μl of PBS, pH 7.6). When the tumors reached a volume of 50-100 mm^3, the mice were divided a control group (n=14 treated with rabbit IgG, 40 μg by intraperitoneal injection (IP)), and an experimental group (n=14) that received m28-RNLS (40 μg IP, every 3 days). Tumor size was measured with digital calipers and volume was calculated according to the formula (length×width^2)×π/2. In another group of animals (n=6 each) sh-RNLS or sh-Control Panc1 cells (2×10^6 in 100 μl of PBS, pH 7.6) were injected subcutaneously. These animals received no further treatments, and tumor size and volume were measured for up to 30 days.
At the end of the study, the mice were sacrificed, the tumors were excised and immediately snap-frozen in liquid nitrogen and stored at −80° C. Apoptosis was examined using the TUNEL assay (Roche in situ Apoptosis Detection System), according to the manufacturer's instructions. Sections were examined by light microscopy and the apoptosis index was determined by counting ≥1000 cells in 5 randomly selected high-power fields (×200 magnification).

The subject of experiment [3] is Panc1 cells. In words: FACS analysis of apoptosis and cell cycle. The following applies: 30 μg/ml. It is filed as cell-based, human. As for the experimental part:
For cell cycle analysis, cultured cells were dissociated using 10 mM EDTA, fixed with ice-cold 70% ethanol, digested with RNAse A, and stained with propidium iodide. Propidium staining was detected using a BD FACSCalibur flow cytometer (BD Biosciences, San Jose, Calif., USA), and analyzed using CellQuest software.
Apoptosis was detected and quantified as previously done (Guo et al., 2012 Cancer Science. 103(8):1474-80). In brief, cells were stained with FITC-labeled Annexin-V and propidium iodide according to the manufacturer's instructions (Bender MedSystems, Burlingame, Calif., USA). At least 20,000 events were collected on a BD FACSCalibur flow cytometer (BD Biosciences, San Jose, Calif., USA) and analyzed using CellQuest software.
A general note: In flow cytometry, cells or beads pass a laser one at a time.

For experiment [4], the system named is PDACC (pancreatic ductal adenocarcinoma cells). In words: PDACC viability with anti-RNLS antibodies, WST-1. The following applies: 72 hrs. It is filed as cell-based, human. On the procedure:
FIG. 25, comprising FIGS. 25A through 25E, is a series of charts and images showing that inhibition of RNLS signaling is cytotoxic to cancer cells in vitro and in vivo. FIG. 25A is a chart showing relative cell viability following transient transfection of Panc1 cells using a RNLS-specific siRNA, or a non-specific control siRNA, and cell viability assayed 96 h later using the WST-1 reagent; n=6, ** indicates p<0.001. FIG. 25B is a chart showing relative cell viability when cells were treated with indicated antibodies for 72 hrs and cell viability determined using WST-1; m28-RNLS and m37-RNLS: monoclonal antibodies raised against RNLS peptide RP220, ab31291: Abcam polyclonal antibody raised against a partial sequence of RP-220; n=6, * indicates p<0.005. […] FIG. 25D is a chart showing tumor volume increase after athymic nude mice received subcutaneous injection of Panc1 cells transduced with RNLS shRNA (sh-RNLS) or control (sh-Control); tumor volume measured every […] for up to 30 days, n=6 each; * indicates p<0.05. FIG. 25E is chart showing tumor volume increase after nude mice were xenografted with BxPC3; tumor volume measured prior to treatment every 3-4 days with 2 mg/kg of either rabbit IgG as a negative control or with m28-RNLS, n=10, * indicates p<0.05.
Cell viability was assessed by trypan blue exclusion, and cells were counted using a BioRad TC10 automated counter.
(In general: Tetrazolium dyes change colour on reduction, which living cells bring about.)

B1: m28-RNLS: rabbit anti-renalase monoclonal raised against RNLS peptide RP-220; heavy chain SEQ ID NO:9, light chain SEQ ID NO:10 (antibody)
heavy: METGLRWLLLVAVLKGVQCQSVEESGGRLVTPGTPLTLTCTVSGFSLSSFAVGWVRQAPGKGLEYIGIISSVGITRYASWAAGRFTISKTSTTVDLKITSPTTEDTATYFCARYGYSGDVNRLDLWGQGTLVTVSSGQPKAPSVFPLAPCCGDTPSSTVTLGCLVKGYLPEPVTVTWNSGTLTNGVRTFPSVRQSSGLYSLSSVVSVTSSSQPVTCNVAHPATNTKVDKTVAPSTCSKPTCPPPELLGGPSVFIFPPKPKDTLMISRTPEVTCVVVDVSQDDPEVQFTWYINNEQVRTARPPLREQQFNSTIRVVSTLPIAHQDWLRGKEFKCKVHNKALPAPIEKTISKARGQPLEPKVYTMGPPREELSSRSVSLTCMINGFYPSDISVEWEKNGKAEDNYKTTPAVLDSDGSYFLYSKLSVPTSEWQRGDVFTCSVMHEALHNHYTQKSISRSPGK
light: MDTRAPTQLLGLLLLWLPGATFAQVLTQTASPVSAAVGGTVTINCQASQSVYDNNNLAWYQQKPGQPPKQLIYGASTLASGVSSRFKGSGSGTQFTLTISGVQCDDAATYYCLGEFSCSSADCFAFGGGTEVVVKGDPVAPTVLIFPPSADLVATGTVTIVCVANKYFPDVTVTWEVDGTTQTTGIENSKTPQNSADCTYNLSSTLTLTSTQYNSHKEYTCKVTQGTTSVVQSFNRGDC
modifications: 1D-28-4 full length heavy chain amino acid; 1D-28-4 full length light chain amino acid
For B1, in experiment [1], the renalase-type specificity result was “recognize renalase-1 and renalase-2”. Also, in experiment [2] (mouse, in vivo), the “decrease in Ki67 expression vs IgG” value is on record as 2.5 fold, the “increase in apoptosis (TUNEL staining) vs IgG” value was approximately 2 fold and the “increase in p21 expression vs IgG” value is approximately 4 fold. In addition, the p21 positive cells in experiment [2] (n=14) was 178.1 ± 11.4 positive cells/high power field. The “TUNEL positive cells (apoptosis)” value in experiment [2] (n=14, IgG 14.8±2.3) is listed as 28.4±3.3 positive cells/high power field. In experiment [2] (n=14, IgG 340.2±11.9), the Ki67 positive cells is reported as 137.1±14.9 positive cells/high power field. Further, in experiment [2] (vs rabbit IgG, up to 3 weeks, 40 μg IP every 3 days), the tumor volume result was “inhibited PDAC growth; also recorded: significant decrease in tumor volume”. Besides, the “cell cycle (FACS)” value in experiment [3] is “pre-G2 cell cycle arrest”. For the same molecule, in experiment [3] (4 days), the “apoptosis (FACS)” value was “caused apoptosis”. For the same molecule, the “PDACC growth / viability” value in experiment [4] was “inhibitory effects”.

For the origin of these results see US20210355235A1, “Compositions and Methods For Treating Cancer with Anti-Renalase antibodies and Anti-PD1 antibodies” (YALE UNIVERSITY, priority 2017, published 2021).
